Results on 2 molecules are retold here after patent publication US20250368742A1 (D2M BIOTHERAPEUTICS, published 2025).

The target of assay [1] is T1, human MICA002 on cells (human).
T1 chain: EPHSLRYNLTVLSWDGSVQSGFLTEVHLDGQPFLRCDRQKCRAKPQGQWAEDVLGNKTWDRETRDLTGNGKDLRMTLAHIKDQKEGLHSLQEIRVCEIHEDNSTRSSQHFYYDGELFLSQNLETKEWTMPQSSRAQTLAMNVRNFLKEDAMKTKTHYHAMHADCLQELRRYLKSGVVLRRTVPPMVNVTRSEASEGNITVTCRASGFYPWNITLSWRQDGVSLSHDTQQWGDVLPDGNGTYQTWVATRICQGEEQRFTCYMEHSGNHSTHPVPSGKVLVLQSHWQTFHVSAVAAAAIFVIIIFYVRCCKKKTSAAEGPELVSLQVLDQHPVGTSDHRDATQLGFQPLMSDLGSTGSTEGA
Kind of assay: flow cytometry, CHO-MICA002 cells.

The target of assay [2] is T2, human MICA004 on cells (human).
T2 construct: whole, on cells; also called CHO-MICA004; C1R-MICA004
The assay can be described thus: flow cytometry, CHO-MICA004 cells. A general note: A flow cytometer gives signals particle by particle.

Assay [3] deals with T3, human MICA008 on cells (human).
T3 construct: whole, on cells; also called CHO-MICA008; C1R-MICA008
The assay can be described thus: flow cytometry, CHO-MICA008 cells.

The target of assay [4] is T4, MICA008-ECD-HISAvi (human).
T4 construct: Two sources under one name in the two kinetic assays; also called MICA008 polypeptide
T4 chain: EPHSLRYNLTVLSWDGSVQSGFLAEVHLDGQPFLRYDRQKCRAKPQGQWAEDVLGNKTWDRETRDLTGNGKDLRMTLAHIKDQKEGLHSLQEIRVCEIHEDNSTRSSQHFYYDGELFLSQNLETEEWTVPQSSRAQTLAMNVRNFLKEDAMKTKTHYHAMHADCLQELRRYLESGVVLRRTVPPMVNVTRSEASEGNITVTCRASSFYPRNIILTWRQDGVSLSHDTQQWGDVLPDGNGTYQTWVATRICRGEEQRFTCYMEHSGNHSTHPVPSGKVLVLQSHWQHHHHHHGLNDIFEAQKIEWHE
Kind of assay: SPR (Carterra); antibody captured by anti-human Fc, monomeric ECD antigen injected.
Protocol: (§1) The dissociation kinetics were monitored for approximately 10 minutes. The chip surface was regenerated between binding cycles with 10 mM glycine HCl, pH 1.7. Binding kinetics were analyzed using software supplied by the manufacturer.

Assay [5] concerns the target T5, MICA002-ECD-HISAvi (human, UniProt Q29983 24-308).
T5 construct: also called MICA002 polypeptide
T5 chain: T4 chain with W14G, Y36C, V129M, E173K, S206G, R210W, I213T, T215S, R251Q
The assay is described as above.
Protocol: as §1

Assay [6] addresses T6, MICB005-ECD-HISAvi (human, UniProt Q29980 24-309).
T6 construct: Two sources under one name in the two kinetic assays; also called MICB005 polypeptide
T6 sequence: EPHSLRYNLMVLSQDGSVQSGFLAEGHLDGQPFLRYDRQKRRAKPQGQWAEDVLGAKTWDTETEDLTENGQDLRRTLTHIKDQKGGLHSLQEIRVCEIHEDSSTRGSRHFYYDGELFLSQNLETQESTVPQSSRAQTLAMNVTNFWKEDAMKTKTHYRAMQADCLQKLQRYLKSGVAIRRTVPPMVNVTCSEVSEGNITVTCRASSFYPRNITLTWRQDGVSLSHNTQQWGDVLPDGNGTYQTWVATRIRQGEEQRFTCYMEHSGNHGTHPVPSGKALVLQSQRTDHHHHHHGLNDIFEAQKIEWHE
Described as above.
Protocol: as §1

In assay [7] the target is T7, MICA004-ECD-HISAvi (human).
T7 construct: also called MICA004 polypeptide
T7 chain: T4 chain with L122V, G175S, T181R, I213T, R251Q
The assay is described as above.
Protocol: as §1

In assay [8] the target is T1, human MICA002 on cells. Kind of assay: flow cytometry, CHO-MICA002 cells.
Assay [9] has as its target T3, human MICA008 on cells. Kind of assay: flow cytometry, HeLa cells (MICA008).
Assay [10] concerns the target T8, human MICB005 on cells (human).
T8 construct: whole, on cells; also called CHO-MICB005; C1R-MICB005
The assay can be described thus: flow cytometry on CHO-MICB005 cells; column Control_2w (control of the 2-week experiment).
Protocol: (§2) The plate was centrifuged, and cells were washed with PBS three times. […] After incubation for 30 minutes at room temperature, cells were washed with PBS twice. Signals of APC were determined by flow cytometry (Attune™ CytPix™, ThermoFisher) within the population of live cells (viability dye PI negative).
(§3) The EC50 values were calculated based on non-linear fitting curves by GraphPad Prism software.

The target in assay [11] is T8, human MICB005 on cells. Kind of assay: flow cytometry on CHO-MICB005 cells; column HSA_2w (2 weeks in human serum at 37 C).
Protocol: as §2, §3
Assay [12] has as its target T8, human MICB005 on cells. The assay can be described thus: flow cytometry, CHO-MICB005 cells.
The target in assay [13] is T8, human MICB005 on cells. The assay can be described thus: flow cytometry, CHO-MICB005 cells. The source holds these as a separate data set.
Protocol: (§4) IgG1 is an isotype control (IgG). The antibody binding signals of APC (gMFI) to MICA/B were measured by flow cytometry.
(§5) After an incubation time of 30 minutes, the plate was centrifuged and cells were washed with PBS three times. […] After mixing for 30 minutes at room temperature, cells were washed with PBS twice. Fluorescent signal was detected and quantified by flow cytometry (Attune™ CytPix™, ThermoFisher) within the population of live cells (viability dye PI negative).
The target in assay [14] is T8, human MICB005 on cells. The assay can be described thus: flow cytometry on CHO-MICB005 cells; column Control_1w (control of the 1-week experiment).
Protocol: as §2, §3
Assay [15] has as its target T3, human MICA008 on cells. The assay can be described thus: flow cytometry, CHO-MICA008 cells. This is another data set of the same source.
Protocol: as §4, §5
Assay [16] has as its target T1, human MICA002 on cells. Kind of assay: flow cytometry, CHO-MICA002 cells.
Protocol: CHO-MICA002 cells were incubated with titrated anti-MICA/B antibodies and then APC-labeled anti-human Fc antibody. […] The antibody binding signals of APC (gMFI) to MICA/B were measured by flow cytometry.
as §5

Where a chain is given by its changes, count along the chain named. Where two headings read alike, the source gives them in different places.

T3 sequence (Q29983 whole entry): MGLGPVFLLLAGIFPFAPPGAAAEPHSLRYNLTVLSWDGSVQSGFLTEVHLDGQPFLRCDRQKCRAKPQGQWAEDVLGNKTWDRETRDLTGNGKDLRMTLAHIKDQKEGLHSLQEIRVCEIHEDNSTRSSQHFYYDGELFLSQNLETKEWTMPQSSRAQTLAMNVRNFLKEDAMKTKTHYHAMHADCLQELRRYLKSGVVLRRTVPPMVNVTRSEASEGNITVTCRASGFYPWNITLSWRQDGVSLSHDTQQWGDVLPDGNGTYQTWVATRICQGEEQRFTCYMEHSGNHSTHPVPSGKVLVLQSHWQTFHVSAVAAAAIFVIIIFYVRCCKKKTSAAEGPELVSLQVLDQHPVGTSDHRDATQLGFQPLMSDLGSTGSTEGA
T2 sequence (Q29983 whole entry): as above

B1: 1D5 (antibody, human IgG1, kappa, V domains shown)
VH: EIQLQQSGPELVKPGASVKVSCKASGYAFTSQNIYWVKQSHGKSLEWIGYIEPYNVVPMYNPKFKGKATLTVDKSSSSAYIHLNSLTSEDSAIYYCARSGSSNFDYWGQGTTLTVSS
VL: EIILTQSPTTMAASPGEKITITCSASSSISSHYLHWYQQKSGFSPKLLIYRTSNLASGVPARFSGSGSGTSYSLTIGTMEAEDVATYYCQQGSSLPLTFGAGTKVEIKR
notes: also called ID5
Regarding B1, the EC50 in [1] was found to be 0.301 µg/mL; in assay [2], 0.051 µg/mL; in assay [3] it was 0.06 µg/mL; in [8] it was 0.209 µg/mL; in assay [9], 0.133 µg/mL; in assay [10] it was 0.264 µg/mL. In addition, the EC50 is 0.287 µg/mL in assay [11]; 0.198 µg/mL in assay [12]; 0.152 µg/mL in assay [13]; 0.237 µg/mL in assay [14]; 0.028 µg/mL in assay [15]; 0.19 µg/mL in assay [16]. The Kd was 0.269 nM in [4], 0.032 nM in assay [5], 0.96 nM in [6] and 0.52 nM in assay [7].

B2: 3F9 (antibody, human IgG1, kappa, V domains shown)
VH: QVQLVESGGGLVKPGGSLRLSCAASGFTFSNYAMSWIRQAPGKGLEWVSYISPGGDYIYYADSVKGRFTISRDNAKNSLYLQMNSLRAEDTAVYYCTTDRRHYGSYAMDYWGQGTLVTVSS
VL: DIVMTQSPLSLPVTPGEPASISCRSSKSLLHSNLNTYLYWFLQKPGQSPQILIYRMSNLASGVPDRFSGSGSGTAFTLKISRVEAEDVGVYYCMQHLEYPFTFGPGTKLEIKR
notes: also called benchmark 3F9
As for B2, the EC50 was determined as 0.857 µg/mL in assay [1]; 0.272 µg/mL in assay [3]; 0.651 µg/mL in assay [9]; 0.956 µg/mL in [10]; 0.784 µg/mL in assay [11]; 1.08 µg/mL in assay [12]. Besides, the EC50 in [13] amounted to 0.572 µg/mL; in [14] it was 0.836 µg/mL; in assay [15], 0.119 µg/mL; in assay [16] it was 0.352 µg/mL. The Kd in assay [4] turned out to be 2 nM; in assay [5] it was 1.65 nM; in [6] it was 5.47 nM; in [7] it was 2.78 nM.

One may read the EC50 as the concentration giving half of the maximal effect. The low end stands for an effect from little substance, the high end for a need for much substance. In general, Kd refers to the free concentration of one partner at which half of the binding sites on the other are occupied at equilibrium, for simple one-to-one binding. A low value points to higher affinity.
